According to patent US12312397B2, “Anti-O2 antibodies and uses thereof” (priority 2016, dated 2025):

Legend:
O1 LPS = assay: ELISA binding to O1 LPS; set-up: species or system Klebsiella pneumoniae; settings: secondary screening
Procedure, shortened: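 Serial dilutions of monoclonal antibodies bound to LPS-coated plates for 1 h at room temperature, detected with alkaline phosphatase-conjugated anti-human IgG (1 h) and pNPP substrate (30 min). Absorbance read at 405 nm; EC50 values derived from binding curves.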

[1] = system: O1 LPS activation of NF-κB in RAW264.7-lux cells; assay: LPS neutralization assay (NF-κB luciferase, RAW264.7-lux), O1 LPS; assay type: cell-based, murine; settings: secondary screening
Procedure, shortened: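 Serially diluted mAbs (human IgG1) pre-mixed 1:1 with LPS at 4 °C for 1 hr, then diluted 1:10 onto RAW264.7-lux cells carrying an NF-κB-driven firefly luciferase; 2.5 h at 37 °C. Luminescence read; % inhibition relative to no-antibody and negative-control mAb wells.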

[2] = system: K. pneumoniae 8570ΔcpsBLux (O2); assay: Opsonophagocytic killing (OPK) assay, O2 capsule mutant; assay type: cell-based, Klebsiella pneumoniae; set-up: key to D Capsule OPK O2: +++: Strongly positive activity; +: Positive activity; +/−: Somewhat positive depending upon the test conditions; settings: capsule mutant strain 8570ΔcpsB lux (O2)
Procedure, shortened: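 Luminescent capsule-deficient K. pneumoniae strains were mixed with DMF-differentiated HL-60 cells, 1:10 baby rabbit serum and anti-O2 LPS mAbs (2 ng–2.5 μg/mL), then shaken for 2 h at 37 °C. Killing % came from luminescence (RLU) against no-antibody and negative-control mAb wells, with >40% scored as positive.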

KPC strain Kp977778_O2 = assay: Lethal pneumonia model, KPC strain Kp977778_O2; assay type: in vivo, Klebsiella pneumoniae; settings: C57/BL6 mice, 3e8 CFU; mAb 2 mg/kg 1 hour post infection; survival
Protocol: C57/BL6 mice were obtained from Jackson Laboratories and maintained in a special pathogen-free facility. All animal experiments were conducted in accordance with Institutional Animal Care and Use Committee (IACUC) protocol and guidance. K. pneumoniae strains were grown on agar plates overnight and diluted in saline at proper concentration. The inoculum titer was determined by plating a serial dilution of bacteria onto agar plates prior to and post challenge. In acute pneumonia models, C57/BL6 mice were inoculated with 1e4 to 2e8 colony-forming units (CFU) of K. pneumoniae clinical isolates in 50 μl saline intranasally. Anti-K pneumoniae monoclonal antibodies (mAbs) and human IgG1 control antibodies were given 1-24 hour post bacterial challenge (therapeutic dosing). Mouse survival was monitored daily until up to day 8. Survival data of representative experiments were plotted in Graphpad Prism software.
Mice were challenged with 2e8 CFU of Klebsiella pneumoniae Carbanpenemase (KPC) strain Kp961842_O2 or with 3e8 CFU of KPC strain Kp977778_O2, followed by the administration of anti-O2 mAbs. When administered at a concentration of 2 mg/kg 1 hour post bacterial infection, Class III anti-O2 LPS mAbs KPN42, KPN179-IgG1, and KPS44v2017 protected mice from lethal bacterial challenge with the multi-drug resistant KPC strains Kp961842_O2 (FIG. 6, left panel, and FIG. 10) and Kp977778_O2 (FIG. 6B, right panel).

B1: KPN179: Class III anti-O2 antigen human mAb; VH SEQ ID NO: 53, VL SEQ ID NO: 54 (antibody, V domains shown)
VH: EVQVVESGGGLVKPGGSLRLSCAASGFTFNNAWMNWVRQAPGKGLEWVGRIKRKADGETTDYPASVKGRFTVSRDDSKNTIYLQMNSLKTEDTAIYYCTTRIVTTNDYWGQGTLVTVSS
VL: QSALTQPPSVSGSPGQSVTISCTGTSSDVGYYDYVSWYQQHHPGKAPKHMIYDVNKRPSGVPDRFSGSKSGNTASLTISGLQAEDEADYYCCSYAGGDTFVFGTGTKVTVL
modifications: Description of Artificial Sequence: SyntheticKPN179 VH polypeptide; Description of Artificial Sequence: SyntheticKPN179 VL polypeptide
binding to LPS-O1 (O1 LPS): bind | neutralization of LPS-O1 [1]: did not show LPS-neutralizing activity | D Capsule OPK O2 [2]: +++ | protection from lethal bacterial challenge, Kp977778_O2 (KPC strain Kp977778_O2): protected
